The series deals with the molecule itself. The series is described as follows: SEC; gel filtration on Superdex 200 10/300 GL (AKTA purifier) of thermally inactivated samples; heated at 45 °C (thermal inactivation: 0.2 mg/ml enzyme in 5 mM Tris-HCl, pH 8.0, 10 min); dimer to monomers. Background: SEC sorts molecules by how far they enter the pores of the column.

B1: human brain-type creatine kinase homodimer (hBBCK) (enzyme)
chain: not shown
notes: creatine kinase, brain type (B subunit), human; wild type; also called WT hBBCK; hBCK
For B1, the binding result is on record as “binds”.

B2: hBBCK P36L mutant (BP36L) (enzyme)
chain: not shown
notes: creatine kinase, brain type (B subunit), human, with P36L; Site-directed mutant of m1; details are in the Supplementary Information
As to B2, the stoichiometry N (as a rule, the number of molecules, sites or subunits per partner or assembly) was 2.

The values are drawn from paper PMC4754747, “A single residue substitution accounts for the significant difference in thermostability between two isoforms of human cytosolic creatine kinase” (Scientific Reports, 2016).
